T1: his-tagged Syrian golden hamster (Mesocricetus auratus) PCSK9 (Syrian golden hamster (Mesocricetus …))
T1 chain: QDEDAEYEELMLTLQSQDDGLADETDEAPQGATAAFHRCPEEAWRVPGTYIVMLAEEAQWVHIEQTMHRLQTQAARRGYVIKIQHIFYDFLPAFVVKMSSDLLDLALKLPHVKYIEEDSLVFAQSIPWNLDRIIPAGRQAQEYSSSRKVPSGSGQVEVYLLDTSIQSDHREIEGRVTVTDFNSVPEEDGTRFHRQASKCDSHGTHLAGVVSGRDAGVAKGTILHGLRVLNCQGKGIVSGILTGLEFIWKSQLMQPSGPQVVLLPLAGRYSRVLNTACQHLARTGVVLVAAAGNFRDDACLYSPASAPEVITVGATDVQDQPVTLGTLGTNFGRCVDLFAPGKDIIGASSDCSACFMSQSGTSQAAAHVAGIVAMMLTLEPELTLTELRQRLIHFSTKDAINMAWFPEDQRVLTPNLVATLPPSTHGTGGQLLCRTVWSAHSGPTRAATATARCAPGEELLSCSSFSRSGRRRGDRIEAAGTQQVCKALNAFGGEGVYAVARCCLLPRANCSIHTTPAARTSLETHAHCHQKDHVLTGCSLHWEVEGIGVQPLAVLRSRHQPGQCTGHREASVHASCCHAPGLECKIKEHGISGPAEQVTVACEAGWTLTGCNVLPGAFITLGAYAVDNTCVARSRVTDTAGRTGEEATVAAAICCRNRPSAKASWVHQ

B1: H1M300N (antibody, V domains shown)
VH: EMQLVESGGGLVQPGGSLRLSCAASGFTFSSHWMKWVRQAPGKGLEWVANINQDGSEKYYVDSVKGRFTISRDNAKNSLFLQMNSLRAEDTAVYYCARDIVLMVYDMDYYYYGMDVWGQGTTVTVSS
VL: not shown
notes: Fully human version made in CHO cells
B2: H1H316P (antibody, V domains shown)
VH: EVQLVESGGGLVQPGGSLRLSCAASGFTFNNYAMNWVRQAPGKGLDWVSTISGSGGTTNYADSVKGRFIISRDSSKHTLYLQMNSLRAEDTAVYYCAKDSNWGNFDLWGRGTLVTVSS
VL: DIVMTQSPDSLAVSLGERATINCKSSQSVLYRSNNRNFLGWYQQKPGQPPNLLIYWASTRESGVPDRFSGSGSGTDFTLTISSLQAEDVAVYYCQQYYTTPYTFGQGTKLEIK
notes: Fully human mAb made in CHO cells; also called mAb316P

Assays:
Human PCSK9-myc-myc-his [1] = target: T2, Human PCSK9-myc-myc-his (human, UniProt Q8NBP7 31-692); test: competition ELISA vs EGF-AB-hFc, pH 7.2
T2 construct: also called hPCSK9-mmh; hPCSK9
Procedure: (§1) Briefly, hLDLR-ecto, hLDLR EGF-A-hFc or hLDLR EGF-AB-hFc, each at 2 μg/ml, was coated on a 96-well plate in PBS buffer overnight at 4° C., and nonspecific binding sites blocked with BSA. […] The equilibrated sample solutions were transferred to receptor or receptor fragment coated plates.

[2] = target: cynomolgus monkey (Macaca fascicularis) PCSK9, myc-myc-his tagged (cynomolgus monkey (Macaca fascicularis), UniProt A8T662 31-692 (Macaca nemestrina entry), limits assumed); test: cell-based or functional assay
[3] = target: T1, his-tagged Syrian golden hamster …; test: cell-based or functional assay
Human PCSK9-myc-myc-his [4] = target: T2, Human PCSK9-myc-myc-his; test: cell-based or functional assay
hPCSK9(D374Y)-mmh = hPCSK9(D374Y)-mmh (human, UniProt Q8NBP7 31-692); test: cell-based or functional assay
[5] = target: T3, rat (Rattus norvegicus) PCSK9, myc-myc-his tagged (rat (Rattus norvegicus), UniProt P59996 31-691); test: cell-based or functional assay
[6] = target: T4, mouse PCSK9, myc-myc-his tagged (mouse, UniProt Q80W65 35-694); test: cell-based or functional assay
Target sequence in this assay (Q80W65 35-694 limits assumed): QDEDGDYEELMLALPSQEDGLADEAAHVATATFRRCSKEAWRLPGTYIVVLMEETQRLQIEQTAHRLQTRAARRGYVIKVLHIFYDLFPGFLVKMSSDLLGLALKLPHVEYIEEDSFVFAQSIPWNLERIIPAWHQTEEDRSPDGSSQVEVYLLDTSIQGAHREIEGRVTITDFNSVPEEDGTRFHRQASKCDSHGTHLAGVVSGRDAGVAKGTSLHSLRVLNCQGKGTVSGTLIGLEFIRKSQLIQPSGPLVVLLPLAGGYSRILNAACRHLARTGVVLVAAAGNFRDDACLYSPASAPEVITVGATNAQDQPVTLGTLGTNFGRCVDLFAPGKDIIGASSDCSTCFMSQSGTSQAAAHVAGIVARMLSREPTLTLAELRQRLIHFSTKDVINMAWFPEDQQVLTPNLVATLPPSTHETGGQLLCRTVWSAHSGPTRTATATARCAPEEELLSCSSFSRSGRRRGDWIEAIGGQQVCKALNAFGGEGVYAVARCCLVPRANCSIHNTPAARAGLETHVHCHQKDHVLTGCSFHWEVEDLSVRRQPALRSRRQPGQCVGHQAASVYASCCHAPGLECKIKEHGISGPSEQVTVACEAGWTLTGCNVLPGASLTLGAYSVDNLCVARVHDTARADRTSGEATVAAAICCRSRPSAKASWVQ

[7] = target: T5, tagged rhesus monkey (Macaca mulata) PCSK9 (rhesus monkey (Macaca mulata), UniProt A8T666 31-692); test: competition ELISA vs EGF-A, pH 5.5
T5 construct: also called mmPCSK9-mmh; mmPCSK9
Procedure: as §1

[8] = target: T1, his-tagged Syrian golden hamster …; test: competition ELISA vs EGF-A, pH 5.5
Procedure: as §1

Human PCSK9-myc-myc-his [9] = target: T2, Human PCSK9-myc-myc-his; test: competition ELISA vs EGF-A, pH 5.5
Procedure: as §1

[10] = target: T3, rat (Rattus norvegicus) PCSK9, …; test: competition ELISA vs EGF-A, pH 5.5
Procedure: as §1

[11] = target: T4, mouse PCSK9, myc-myc-his tagged; test: competition ELISA vs EGF-A, pH 5.5
Procedure: as §1

Human PCSK9-myc-myc-his [12] = target: T2, Human PCSK9-myc-myc-his; test: competition ELISA vs EGF-A-hFc, pH 7.2
Procedure: as §1

[13] = target: T5, tagged rhesus monkey (Macaca mulata) …; test: competition ELISA vs EGF-AB-hFc, pH 7.2
Procedure: as §1

[14] = target: T4, mouse PCSK9, myc-myc-his tagged; test: competition ELISA vs EGF-AB-hFc, pH 7.2
Procedure: as §1

Human PCSK9-myc-myc-his [15] = target: T2, Human PCSK9-myc-myc-his; test: competition ELISA vs hLDLR-ecto, pH 7.2
Procedure: as §1

[16] = target: T1, his-tagged Syrian golden hamster …; test: SPR, mAb amine-coupled, 25C, pH 7.4
Source text: (§2) Briefly, mAbs were immobilized onto BIACORE™ CM5 sensor chips via amine coupling.

[17] = target: T3, rat (Rattus norvegicus) PCSK9, …; test: SPR, mAb amine-coupled, 25C, pH 7.4
Source text: as §2

[18] = target: T4, mouse PCSK9, myc-myc-his tagged; test: SPR, mAb amine-coupled, 25C, pH 7.4
Source text: as §2

T3 sequence (P59996 31-691 limits assumed): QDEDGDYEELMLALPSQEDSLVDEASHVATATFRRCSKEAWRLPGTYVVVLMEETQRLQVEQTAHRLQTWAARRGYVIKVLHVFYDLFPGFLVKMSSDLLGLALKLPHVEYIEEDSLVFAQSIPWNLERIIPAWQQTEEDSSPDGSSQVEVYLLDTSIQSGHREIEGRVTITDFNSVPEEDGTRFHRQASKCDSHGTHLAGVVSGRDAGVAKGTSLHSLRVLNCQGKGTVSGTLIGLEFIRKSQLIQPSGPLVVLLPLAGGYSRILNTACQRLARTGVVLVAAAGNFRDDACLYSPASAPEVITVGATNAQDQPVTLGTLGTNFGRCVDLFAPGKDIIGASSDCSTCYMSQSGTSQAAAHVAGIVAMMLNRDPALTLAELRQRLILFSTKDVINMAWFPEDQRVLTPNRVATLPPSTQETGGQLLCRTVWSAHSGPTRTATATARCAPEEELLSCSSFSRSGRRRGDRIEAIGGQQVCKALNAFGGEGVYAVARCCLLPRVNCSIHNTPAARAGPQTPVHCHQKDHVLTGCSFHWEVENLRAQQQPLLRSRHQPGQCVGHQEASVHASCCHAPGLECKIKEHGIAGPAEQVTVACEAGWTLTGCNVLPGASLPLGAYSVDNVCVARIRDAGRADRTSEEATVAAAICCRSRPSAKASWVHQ
T5 sequence (A8T666 31-692 limits assumed): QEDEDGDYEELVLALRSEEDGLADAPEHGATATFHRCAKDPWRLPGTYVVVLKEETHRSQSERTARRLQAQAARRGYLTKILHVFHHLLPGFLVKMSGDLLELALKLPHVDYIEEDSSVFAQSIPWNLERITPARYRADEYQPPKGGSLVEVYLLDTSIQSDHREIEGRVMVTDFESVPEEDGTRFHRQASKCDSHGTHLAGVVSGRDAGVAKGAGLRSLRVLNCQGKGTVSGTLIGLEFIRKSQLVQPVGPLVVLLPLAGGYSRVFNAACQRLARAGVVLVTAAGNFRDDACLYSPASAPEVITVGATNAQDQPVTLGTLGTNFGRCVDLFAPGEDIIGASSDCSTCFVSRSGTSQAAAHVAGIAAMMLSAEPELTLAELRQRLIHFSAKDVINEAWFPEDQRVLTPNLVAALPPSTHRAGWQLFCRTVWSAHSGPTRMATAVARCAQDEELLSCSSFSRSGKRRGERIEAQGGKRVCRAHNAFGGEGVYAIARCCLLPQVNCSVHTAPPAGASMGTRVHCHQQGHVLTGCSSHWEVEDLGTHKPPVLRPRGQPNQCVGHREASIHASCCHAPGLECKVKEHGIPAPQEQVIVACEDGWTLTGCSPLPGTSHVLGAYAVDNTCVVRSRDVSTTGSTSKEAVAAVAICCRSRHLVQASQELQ
Sequence of cynomolgus monkey (Macaca fascicularis) PCSK9, myc-myc-his tagged (A8T662 31-692 limits assumed): as the sequence (A8T666 31-692 limits assumed) above, with P607A, K639E counted along it

Binder	IC50 (Human PCSK9-myc-myc-his [1])	IC50, LDL uptake in HepG2 cells [2]	IC50, LDL uptake in HepG2 cells [3]	IC50, LDL uptake in HepG2 cells (Human PCSK9-myc-myc-his [4])	IC50, LDL uptake in HepG2 cells (hPCSK9(D374Y)-mmh)	IC50, LDL uptake in HepG2 cells [5]	IC50, LDL uptake in HepG2 cells [6]	IC50 [7]	IC50 [8]	IC50 (Human PCSK9-myc-myc-his [9])	IC50 [10]	IC50 [11]	IC50 (Human PCSK9-myc-myc-his [12])	IC50 [13]	IC50 [14]	IC50 (Human PCSK9-myc-myc-his [15])	other results
B1	< 0.125 nM	13.4 nM	> 500 nM	12.6 nM	11 nM	> 500 nM	> 500 nM	3.7 nM	> 100 nM	0.223 nM	> 100 nM	> 100 nM	0.146 nM	0.29 nM	> 33 nM	0.144 nM	
B2	< 0.125 nM	14.7 nM	14.4 nM	14.1 nM	2.1 nM	27.7 nM	21.2 nM	< 0.25 nM	1.3 nM	< 0.125 nM	42.9 nM	0.991 nM	< 0.125 nM	< 0.25 nM	< 0.25 nM	< 0.125 nM	Kd [16]: 8.35 nM; T1/2 [16]: 8 min; Kd [17]: 24.1 nM; T1/2 [17]: 2 min; Kd [18]: 4.46 nM; T1/2 [18]: 10 min
